These results are taken from patent US20200190507A1, “Encoded Solid Phase Compound Library with Polynucleotide Based Barcoding” (The Scripps Research Institute, priority 2016, published 2020).

This experiment concerns ATB serum IgGs. Description: Antigen competition binding analysis with beads displaying 2-B. The arrangement: species or system human. The conditions noted are these: for competition with 2-B for binding ATB serum IgGs: pooled ATB serum, beads displaying 2-B, CFP 250 μg/mL.

“Also recorded” adds a separate entry of the source.

B1: recombinant Ag85B: Mycobacterium tuberculosis recombinant protein reference standard Ag85B, expressed in E. coli (protein)
chain: FSRPGLPVEYLQVPSPSMGRDIKVQFQSGGNNSPAVYLLDGLRAQDDYNGWDINTPAFEWYYQSGLSIVMPVGGQSSFYSDWYSPACGKAGCQTYKWETFLTSELPQWLSANRAVKPTGSAAIGLSMAGSSAMILAAYHPQQFIYAGSLSALLDPSQGMGPSLIGLAMGDAGGYKAADMWGPSSDPAWERNDPTQQIPKLVANNTRLWVYCGNGTPNELGGANIPAEFLENFVRSSNLKFQDAYNAAGGHNAVFNFPPNGTHSWEYWGAQLNAMKGDLQSSLGAG
On to B1, for which the “competition with 2-B for binding ATB serum IgGs” value is “no binding competition; also recorded: unreactive; also recorded: did not compete”.

B2: Ag85B: Mycobacterium tuberculosis purified native protein Ag85B (Gene Rv1886c), Strain H37Rv (protein)
chain: B1 chain
Consider B2, for which the “competition with 2-B for binding ATB serum IgGs” value was “compete strongly”. Further, the “ATB IgG binding of Ag85B relative to Ag85A” value (competition titration with 2-B beads) is approximately 10 fold.
